Assays:
[1] = target: T1, recombinant Plasmodium falciparum circumsporozoite protein (rPfCSP) (Plasmodium falciparum 3D7, UniProt Q7K740); assay: BLI; Octet RED384; rPfCSP on the sensor, purified IgG at 2, 1, 0.5, 0.25, 0.125 ug/mL; 1:1 model; apparent affinity; details: both partners purified
T1 construct: full-length circumsporozoite (CS) protein of 3D7, a clone of the NF54 strain of P. falciparum; also called CS protein

[2] = target: T1, recombinant Plasmodium falciparum …; assay: BLI; Octet RED384; rPfCSP on the sensor, mouse serum 8 weeks after AAV administration with the mAb at 2, 1, 0.5, 0.25, 0.125 ug/mL; 1:1 model; apparent affinity; details: one partner purified

T1 sequence (Q7K740 19-374): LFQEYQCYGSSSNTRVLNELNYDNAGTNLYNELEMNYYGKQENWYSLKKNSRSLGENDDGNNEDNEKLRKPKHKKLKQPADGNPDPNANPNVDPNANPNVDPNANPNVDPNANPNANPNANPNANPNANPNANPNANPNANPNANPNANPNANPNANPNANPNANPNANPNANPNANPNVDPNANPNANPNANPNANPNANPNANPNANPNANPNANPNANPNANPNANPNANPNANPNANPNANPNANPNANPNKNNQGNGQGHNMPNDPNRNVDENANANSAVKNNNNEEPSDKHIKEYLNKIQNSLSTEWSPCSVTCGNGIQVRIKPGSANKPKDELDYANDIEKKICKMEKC

Row | Binder | Kd [1] [nM] | Kd [2] [nM]
1 | CIS43 human monoclonal antibody (antibody, V domains shown, the secreted chain begins at QVQLVQ; light chain of CIS43; IgG1 by the printed constant region; also called rCIS43; CIS43 IgG; source: Expi293 (GenScript) or CHO cells, purified (protein-A column; Superdex200 before BLI)) VH: QVQLVQSGAEVKKPGASVKVSCKASGYTFTSYAIHWVRQAPGQRLEWMGWIKAGNGNTRYSQKFQDRVTITRDTSTTTAYMELSSLRSEDTAVYYCALLTVLTPDDAFDIWGQGTMVTVSS VL: not shown | 5 | 
2 | CIS43 expressed in vivo from an AAV vector (CIS43-AAV), in mouse serum (antibody, V domains shown, synthesised and cloned into the VIP vector; human IgG1 heavy chain constant region of the VIP expression vector; light chain variable region of CIS43, as in the light chain of Dm1; human kappa light chain constant region of the VIP expression vector; Heavy and light chain are made from one transcript, separated by an F2A self-processing peptide; also called AAV-expressed CIS43; source: expressed …) VH: QVQLVQSGAEVKKPGASVKVSCKASGYTFTSYAIHWVRQAPGQRLEWMGWIKAGNGNTRYSQKFQDRVTITRDTSTTTAYMELSSLRSEDTAVYYCALLTVLTPDDAFDIWGQGTMVTVSS VL: not shown |  | 2.3

From article PMC7934869 (JCI Insight, 2021)
